Laboratory results taken from the supplement of paper PMC11780869.

System: Bacillus subtilis
Test: cleaved RNA product abundance (RNA/gDNA barcode ratio) relative to median wild-type variant (ratio to wild type); higher = more accumulation of the downstream cleavage product
Details: experiment (reporter, strain, medium): exp 8a: truncated aprE reporter, strain BJT201 with 2% xylose (RNase J1 expressed); cleavage site: glnRA (positions -5 to +31 mutated)
Procedure, shortened: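 In LB at 37°C, B. subtilis cultures went from OD600 0.0003 to 0.3. Their chromosomes held barcoded reporter mRNAs, truncated aprE or tetM, with RNase Y cleavage-site windows mutagenized via oligos at a 9% error rate. Cleaved RNA, chosen by gel, was reverse transcribed and barcode-sequenced alongside genomic DNA barcodes with UMI collapsing, giving a per-construct RNA:gDNA ratio scaled to the median construct with the unmutated site. This scaled ratio is termed cleaved product abundance.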

Row | Sequence | cleaved RNA product abundance
1 | CGACATGTCCCGCTTCTTTCATTACTCCGTTAGCAACTGTTTTGCTATATACATTTACTTTTTAAGAGGAGGAAT | 1.59
2 | CGACATGTCCCGCTTCTTTCATTACTCCGTTAGCAACTGTTTTGCTATATACATTTATCTTTTAAGAGGAGGAAT | 1.8
3 | CGACATGTCCCGCTTCTTTCATTACTCCGTTAGCAACTGTTTTGCTATATACATTTGCCTTTTAAGAGGAGGAAT | 0.366
4 | CGACATGTCCCGCTTCTTTCATTACTCCGTTAGCAACTGTTTTGCTATATACATTTTCCTTTTAAGAGGAGGAAT | 0.403
5 | CGACATGTCCCGCTTCTTTCATTACTCCGTTAGCAACTGTTTTGCTATATACGTTTACCTTTTAAGAGGAGGAAT | 0.332
6 | CGACATGTCCCGCTTCTTTCATTACTCCGTTAGCAACTGTTTTGCTATATACTTTTACCTTTTAAGAGGAGGAAT | 0.592
7 | CGACATGTCCCGCTTCTTTCATTACTCCGTTAGCAACTGTTTTGCTATATATATTTACCTTTTAAGAGGAGGAAT | 1.44
8 | CGACATGTCCCGCTTCTTTCATTACTCCGTTAGCAACTGTTTTGCTATATCCATTTACCTTTTAAGAGGAGGAAT | 0.21
9 | CGACATGTCCCGCTTCTTTCATTACTCCGTTAGCAACTGTTTTGCTATATGCATTTACCTTTTAAGAGGAGGAAT | 0.234
10 | CGACATGTCCCGCTTCTTTCATTACTCCGTTAGCAACTGTTTTGCTATCTACATTTACCTTTTAAGAGGAGGAAT | 0.0823
11 | CGACATGTCCCGCTTCTTTCATTACTCCGTTAGCAACTGTTTTGCTATGTACATTTACCTTTTAAGAGGAGGAAT | 0.117
12 | CGACATGTCCCGCTTCTTTCATTACTCCGTTAGCAACTGTTTTGCTATTTACATTTACCTTTTAAGAGGAGGAAT | 0.151
13 | CGACATGTCCCGCTTCTTTCATTACTCCGTTAGCAACTGTTTTGCTCTATACATTTACCTTTTAAGAGGAGGAAT | 0.288
14 | CGACATGTCCCGCTTCTTTCATTACTCCGTTAGCAACTGTTTTGCTGTATACATTTACCTTTTAAGAGGAGGAAT | 0.372
15 | CGACATGTCCCGCTTCTTTCATTACTCCGTTAGCAACTGTTTTGCTTTATACATATACCTTTTAAGAGGAGGAAT | 0.58
16 | CGACATGTCCCGCTTCTTTCATTACTCCGTTAGCAACTGTTTTGGTATATACATTTACCTTTTAAGAGGAGGAAT | 0.278
17 | CGACATGTCCCGCTTCTTTCATTACTCCGTTAGCAACTGTTTTGTTATATACATTTACCTTTTAAGAGGAGGAAT | 0.573
18 | CGACATGTCCCGCTTCTTTCATTACTCCGTTAGCAACTGTTTTTCTATATACATTTACCTTTTAAGAGGAGGAAT | 0.594
19 | CGACATGTCCCGCTTCTTTCATTACTCCGTTAGCAACTGTTTTTCTATTTACATTTACCTTTTAAGAGGAGGAAT | 0.151
20 | CGACATGTCCCGCTTCTTTCATTACTCCGTTAGCAACTTTTTTGCTATATACATTTACCTTTTAAGAGGAGGAAT | 2.09
21 | CGACATGTCCCGCTTCTTTCATTACTCCGTTAGCAAGTGTTTTGCTATATACATTTACCTTTTAAGAGGAGGAAT | 0.557
22 | CGACATGTCCCGCTTCTTTCATTACTCCGTTAGCAATTGTTTTGCTATATACATTTACCTTTTAAGAGGAGGAAT | 1.23

Row | Sequence | cleaved RNA product abundance
23 | CGACATGTCCCGCTTCTTTCATTACTCCGTTAGCAGCTGTTTTGCTATATACATTTACCTTTTAAGAGGAGGAAT | 0.827
24 | CGACATGTCCCGCTTCTTTCATTACTCCGTTAGCTACTGTTTTGCTATATACATTTACCTTTTAAGAGGAGGAAT | 0.923
25 | CGACATGTCCCGCTTCTTTCATTACTCCGTTAGTAACGGTTTTGCTATATACATTTACCTTTTAAGAGGAGGAAT | 0.281
26 | CGACATGTCCCGCTTCTTTCATTACTCCGTTAGTAACTGTTTTGCTATATACATTTACCTTTTAAGAGGAGGAAT | 0.482
27 | CGACATGTCCCGCTTCTTTCATTACTCCGTTATCAACTGTTTTGCTATATACATTTACCTTTTAAGAGGAGGAAT | 0.227
28 | CGACATGTCCCGCTTCTTTCATTACTCCGTTATGAACTGTTTTCCTATATACATTTACCTTTTAAGAGGAGGAAT | 0.316
29 | CGACATGTCCCGCTTCTTTCATTACTCCGTTTACAACTGTTTTGCTATATACATTTACCTTTTAAGAGGAGGAAT | 0.368
30 | CGACATGTCCCGCTTCTTTCATTACTCCGTTTGCAACTGTTTTGCTATATACATTTACCTTTTAAGAGGAGGAAT | 0.667
31 | CGACATGTCCCGCTTCTTTCATTACTCCTTTAGCAACTGTTTTGCTATATACATTTACCTTTTAAGAGGAGGAAT | 0.376
32 | CGACATGTCCCGCTTCTTTCATTACTCTGTTAGCAACTGTTTTGCTATATACATTTACCTTTTAAGAGGAGGAAT | 0.791
33 | CGACATGTCCCGCTTCTTTCATTACTGCGTTAGCAACTGTTTTGCTATATACATTTACCTTTTAAGAGGAGGAAT | 1.68
34 | CGACATGTCCCGCTTCTTTCATTACTTCGTTAGCAACTGTTTTGCTATATACATTTACCTTTTAAGAGGAGGAAT | 1.57
35 | CGACATGTCCCGCTTCTTTCATTAGTCAGTTAGCAACTGTTTTGCTATATACATTTACCTTTTAAGAGGAGGAAT | 0.249
36 | CGACATGTCCCGCTTCTTTCATTAGTCCGTTACCAACTGTTTTGCTATATACATTTACCTTTTAAGAGGAGGAAT | 0.248
37 | CGACATGTCCCGCTTCTTTCATTAGTCCGTTAGCAACAGTTTTGCTATATACATTTACCTTTTAAGAGGAGGAAT | 0.968
38 | CGACATGTCCCGCTTCTTTCATTAGTCCGTTAGCAACTGTTTTACTATATACATTTACCTTTTAAGAGGAGGAAT | 0.548
39 | CGACATGTCCCGCTTCTTTCATTAGTCCGTTAGCAACTGTTTTCCTATATACATTTACCTTTTAAGAGGAGGAAT | 0.352
40 | CGACATGTCCCGCTTCTTTCATTAGTCCGTTAGCAACTGTTTTGATATATACATTTACCTTTTAAGAGGAGGAAT | 0.542
41 | CGACATGTCCCGCTTCTTTCATTAGTCCGTTAGCAACTGTTTTGCTATATACATTTACCTTTTAAGAGGAGGAAT | 0.767
42 | CGACATGTCCCGCTTCTTTCATTAGTCCGTTAGCAACTGTTTTGCTATATACTTTTACCTTTTAAGAGGAGGAAT | 0.341
43 | CGACATGTCCCGCTTCTTTCATTAGTCCGTTAGCAACTGTTTTGCTATATATATTTACCTTTTAAGAGGAGGAAT | 0.842
44 | CGACATGTCCCGCTTCTTTCATTAGTCCGTTAGTAACTGTTTTGCTATATACATTTACCTTTTAAGAGGAGGAAT | 0.335

Row | Sequence | cleaved RNA product abundance
45 | CGACATGTCCCGCTTCTTTCATTATACCGTTAGCAACTGTTTTGCTATATACATTTACCTTTTAAGAGGAGGAAT | 2.04
46 | CGACATGTCCCGCTTCTTTCATTATCCCGTTAGCAACTGTTTTGCTATATACATTTACCTTTTAAGAGGAGGAAT | 1.49
47 | CGACATGTCCCGCTTCTTTCATTATCCCGTTAGCAACTGTTTTGCTATATACTTTTACCTTTTAAGAGGAGGAAT | 0.41
48 | CGACATGTCCCGCTTCTTTCATTATCCGTTAGCAACTGTTTTGCTATATACATTTACCTTTTAAGAGGAGGAATT | 0.941
49 | CGACATGTCCCGCTTCTTTCATTATGCCGTTAGCAACTGTTTTGCTATATACATTTACCTTTTAAGAGGAGGAAT | 1.32
50 | CGACATGTCCCGCTTCTTTCATTATTACGTTACCAACTATTTTGCTATATACATTTATCTTTTAAGAGGAGGAAT | 0.242
51 | CGACATGTCCCGCTTCTTTCATTATTACGTTAGCAACCGTTTTGCTATATACATTTACCTTTTAAGAGGAGGAAT | 1.06
52 | CGACATGTCCCGCTTCTTTCATTATTACGTTAGCAACTGTTTTGCTATATACATTTACCTTTTAAGAGGAGGAAT | 1.27
53 | CGACATGTCCCGCTTCTTTCATTATTCAGTTAGCAACTGTTTTGCTATATACATTTACCTTTTAAGAGGAGGAAT | 1.38
54 | CGACATGTCCCGCTTCTTTCATTATTCCAATAGCAACTGTTTTGCTATATACATTTACCTTTTAAGAGGAGGAAT | 0.925
55 | CGACATGTCCCGCTTCTTTCATTATTCCATTAGCAACTGTTTTGCTATATACATTTACCTTTTAAGAGGAGGAAT | 1.21
56 | CGACATGTCCCGCTTCTTTCATTATTCCATTAGCAATTGTTTTGCTATATACATTTACCTTTTAAGAGGAGGAAT | 1.33
57 | CGACATGTCCCGCTTCTTTCATTATTCCCTTAGCAACTGTTTTGCTATATACATTTACCTTTTAAGAGGAGGAAT | 0.221
58 | CGACATGTCCCGCTTCTTTCATTATTCCGATAGCAACTATTTTGCTATATACATTTACCTTTTAAGAGGAGGAAT | 1.85
59 | CGACATGTCCCGCTTCTTTCATTATTCCGATAGCAACTGTTTTGCTATATACATTTACCTTTTAAGAGGAGGAAT | 0.898
60 | CGACATGTCCCGCTTCTTTCATTATTCCGATATCAATTGTTTCGCTATATACATTTACCTTTTAAGAGGAGGAAT | 0.147
61 | CGACATGTCCCGCTTCTTTCATTATTCCGTAAGCAACTGTTTTGCTATATACATTTACCTTTTAAGAGGAGGAAT | 0.594
62 | CGACATGTCCCGCTTCTTTCATTATTCCGTAAGCGACTGTTTTGATATATACATTTACCTTTTAAGAGGGGGAAT | 0.359
63 | CGACATGTCCCGCTTCTTTCATTATTCCGTCAGCAACTGTTTTGCTATATACATTTACCTTTTAAGAGGAGGAAT | 0.502
64 | CGACATGTCCCGCTTCTTTCATTATTCCGTGAGCAACTGTTTTGATATATACATTTACCTTTTAAGAGGAGGAAT | 0.52
65 | CGACATGTCCCGCTTCTTTCATTATTCCGTGAGCAACTGTTTTGCTATATACATTTACCTTTTAAGAGGAGGAAT | 0.62
66 | CGACATGTCCCGCTTCTTTCATTATTCCGTGAGCAACTGTTTTTCTATATACATTTACCTTTTAAGAGGAGGAAT | 0.407
